Data from article PMC2734569, “Functional mapping of the fission yeast DNA polymerase δ B-subunit Cdc1 by site-directed and random pentapeptide insertion mutagenesis” (BMC Molecular Biology, 2009).

Key:
Assay in all cases: two-hybrid; LexA-Cdc1 bait (pBTM116 or pBTM116BN) with Gal4-Pol3 prey and co-expressed c-myc-tagged Cdc27 (pAA-Cdc27) in S. cerevisiae CTY10-5d; ONPG liquid culture beta-galactosidase assay, mean of triplicates, as percent of wild-type Cdc1
Conditions in all cases: partners not purified
[1] = biological target: T1, Cdc1-J8 (Schizosaccharomyces pombe, UniProt P87324 1-462, Lys-GlyValProLeuLys-Pro)
T1 construct: Cdc1, S. pombe, with a pentapeptide inserted after residue 83; also called J19; source: yeast two-hybrid fusion, in S. cerevisiae CTY10-5d
T1 sequence (looked up): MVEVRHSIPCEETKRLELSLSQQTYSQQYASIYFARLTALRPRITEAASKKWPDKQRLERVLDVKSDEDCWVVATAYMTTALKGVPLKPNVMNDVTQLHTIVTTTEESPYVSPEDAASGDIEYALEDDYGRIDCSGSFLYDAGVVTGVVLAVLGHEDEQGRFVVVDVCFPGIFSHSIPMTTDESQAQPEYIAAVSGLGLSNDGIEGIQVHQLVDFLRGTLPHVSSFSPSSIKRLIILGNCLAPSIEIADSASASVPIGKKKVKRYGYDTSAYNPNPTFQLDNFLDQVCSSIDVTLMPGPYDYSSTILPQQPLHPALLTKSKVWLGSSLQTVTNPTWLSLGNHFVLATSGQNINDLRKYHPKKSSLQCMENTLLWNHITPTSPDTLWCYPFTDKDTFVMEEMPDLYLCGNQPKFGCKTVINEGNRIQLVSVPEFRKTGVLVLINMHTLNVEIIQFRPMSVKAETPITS

[2] = biological target: T2, Cdc1-J12 (Schizosaccharomyces pombe, UniProt P87324 1-462, Ser-GlyValProHisSer-Ile)
T2 construct: Cdc1, S. pombe, with a pentapeptide inserted after residue 7; source: yeast two-hybrid fusion, in S. cerevisiae CTY10-5d
T2 sequence (looked up): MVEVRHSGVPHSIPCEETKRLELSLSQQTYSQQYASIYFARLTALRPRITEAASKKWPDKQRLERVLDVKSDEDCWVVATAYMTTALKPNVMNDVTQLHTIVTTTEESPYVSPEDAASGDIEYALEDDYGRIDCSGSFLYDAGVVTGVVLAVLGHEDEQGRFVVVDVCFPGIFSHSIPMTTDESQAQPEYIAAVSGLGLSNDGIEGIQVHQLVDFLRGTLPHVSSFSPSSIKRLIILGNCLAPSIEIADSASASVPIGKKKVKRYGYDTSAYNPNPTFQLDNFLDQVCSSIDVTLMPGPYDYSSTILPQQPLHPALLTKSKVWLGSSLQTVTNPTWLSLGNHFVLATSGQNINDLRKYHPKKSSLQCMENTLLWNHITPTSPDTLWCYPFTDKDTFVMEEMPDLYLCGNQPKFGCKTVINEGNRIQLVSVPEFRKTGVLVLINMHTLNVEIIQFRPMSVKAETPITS

[3] = biological target: T3, Cdc1-A10 (Schizosaccharomyces pombe, UniProt P87324 1-462, Asn328Ala | Pro329Ala)
T3 construct: Cdc1, S. pombe, double point mutant (A5 and A6 combined); source: yeast two-hybrid fusion, in S. cerevisiae CTY10-5d
T3 sequence (looked up): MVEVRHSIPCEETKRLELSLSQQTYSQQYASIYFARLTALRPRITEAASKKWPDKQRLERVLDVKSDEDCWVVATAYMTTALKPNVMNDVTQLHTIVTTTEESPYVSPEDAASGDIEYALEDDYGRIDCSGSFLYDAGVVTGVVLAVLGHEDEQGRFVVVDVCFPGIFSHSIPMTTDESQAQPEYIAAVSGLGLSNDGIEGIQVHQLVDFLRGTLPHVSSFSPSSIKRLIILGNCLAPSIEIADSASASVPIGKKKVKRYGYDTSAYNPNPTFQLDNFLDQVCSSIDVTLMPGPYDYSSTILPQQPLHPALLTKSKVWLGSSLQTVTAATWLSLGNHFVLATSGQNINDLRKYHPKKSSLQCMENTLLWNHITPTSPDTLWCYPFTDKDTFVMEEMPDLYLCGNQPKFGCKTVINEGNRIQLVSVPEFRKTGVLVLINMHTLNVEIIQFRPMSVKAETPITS

[4] = biological target: T4, Cdc1-A1 (Schizosaccharomyces pombe, UniProt P87324 1-462, Pro292Ala)
T4 construct: Cdc1, S. pombe, point mutant; source: yeast two-hybrid fusion, in S. cerevisiae CTY10-5d
T4 sequence (looked up): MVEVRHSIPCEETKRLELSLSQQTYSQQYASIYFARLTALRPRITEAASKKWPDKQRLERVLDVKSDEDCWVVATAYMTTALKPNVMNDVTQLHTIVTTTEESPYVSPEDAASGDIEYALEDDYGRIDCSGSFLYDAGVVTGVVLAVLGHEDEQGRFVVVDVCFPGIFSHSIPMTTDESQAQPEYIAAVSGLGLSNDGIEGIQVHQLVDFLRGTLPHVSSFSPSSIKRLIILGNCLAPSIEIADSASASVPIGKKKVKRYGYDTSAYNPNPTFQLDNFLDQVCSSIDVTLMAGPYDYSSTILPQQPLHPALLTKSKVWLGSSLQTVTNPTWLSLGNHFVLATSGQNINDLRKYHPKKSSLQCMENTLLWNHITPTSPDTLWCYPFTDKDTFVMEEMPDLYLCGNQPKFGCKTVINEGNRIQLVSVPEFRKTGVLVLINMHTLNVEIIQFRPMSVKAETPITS

B1: Pol3 (fission yeast DNA polymerase delta catalytic subunit) (natural protein, Schizosaccharomyces pombe, UniProt P30316 1-1086, looked up)
chain: MTDRSSNEGVVLNKENYPFPRRNGSIHGEITDVKRRRLSERNGYGDKKGSSSKEKTSSFEDELAEYASQLDQDEIKSSKDQQWQRPALPAINPEKDDIYFQQIDSEEFTEGSVPSIRLFGVTDNGNSILVHVVGFLPYFYVKAPVGFRPEMLERFTQDLDATCNGGVIDHCIIEMKENLYGFQGNEKSPFIKIFTTNPRILSRARNVFERGEFNFEELFPVGVGVTTFESNTQYLLRFMIDCDVVGMNWIHLPASKYQFRYQNRVSNCQIEAWINYKDLISLPAEGQWSKMAPLRIMSFDIECAGRKGVFPDPSIDPVIQIASIVTQYGDSTPFVRNVFCVDTCSQIVGTQVYEFQNQAEMLSSWSKFVRDVDPDVLIGYNICNFDIPYLLDRAKSLRIHNFPLLGRIHNFFSVAKETTFSSKAYGTRESKTTSIPGRLQLDMLQVMQRDFKLRSYSLNAVCSQFLGEQKEDVHYSIITDLQNGTADSRRRLAIYCLKDAYLPQRLMDKLMCFVNYTEMARVTGVPFNFLLARGQQIKVISQLFRKALQHDLVVPNIRVNGTDEQYEGATVIEPIKGYYDTPIATLDFSSLYPSIMQAHNLCYTTLLDSNTAELLKLKQDVDYSVTPNGDYFVKPHVRKGLLPIILADLLNARKKAKADLKKETDPFKKAVLDGRQLALKVSANSVYGFTGATNGRLPCLAISSSVTSYGRQMIEKTKDVVEKRYRIENGYSHDAVVIYGDTDSVMVKFGVKTLPEAMKLGEEAANYVSDQFPNPIKLEFEKVYFPYLLISKKRYAGLFWTRTDTYDKMDSKGIETVRRDNCPLVSYVIDTALRKMLIDQDVEGAQLFTKKVISDLLQNKIDMSQLVITKALSKTDYAAKMAHVELAERMRKRDAGSAPAIGDRVAYVIIKGAQGDQFYMRSEDPIYVLENNIPIDAKYYLENQLSKPLLRIFEPILGEKASSLLHGDHTRTISMAAPSVGGIMKFAVKVETCLGCKAPIKKGKTALCENCLNRSAELYQRQVAQVNDLEVRFARLWTQCQRCQGSMHQDVICTSRDCPIFYMRIAEHKKLQQSVDLLKRFDEMSW
notes: DNA polymerase delta catalytic subunit Pol3, S. pombe; prey plasmid named pACT-Pol3 in the results and pGAD2F-Pol3 in the methods; also called Gal4-Pol3; pACT-Pol3; source: yeast two-hybrid fusion, in S. cerevisiae CTY10-5d
two-hybrid beta-galactosidase activity, % of wild-type Cdc1 [1]: < 1%
two-hybrid beta-galactosidase activity, % of wild-type Cdc1 [2]: < 1%
two-hybrid beta-galactosidase activity, % of wild-type Cdc1 [3]: < 1%
two-hybrid beta-galactosidase activity, % of wild-type Cdc1 [4]: 39%
